Results on one molecule are retold here after patent US20050255113A1, “Methods and compositions for inhibiting polypeptide accumulation associated with neurological disorders” (New York State Department of Health and Abgenix, Inc., priority 1999, published 2005).

The experiment relates to N-terminal HD sequence (Nt-HD). The experiment is described as follows: ELISA of sFv binding to immobilized GST-fusion proteins / biotinylated Nt-HD peptide. The conditions noted are these: plates with streptavidin, GST-HD-42Q, GST-HD-65Q, GST-DRPLA-35Q. The procedure: As described in Example 2, four rounds of selection were performed with decreasing concentrations of antigen at each round (100 nM, 50 nM, 10 nM, 1 nM). After the third round, bacterial clones were screened to isolate those which secreted sFv molecules specific to the N-terminal HD sequence. Screening was performed by ELISA. Bacterial supernatants containing secreted sFv were incubated with either 2% bovine serum albumin (BSA), as negative control, or with 2% BSA containing biotinylated antigen (0.1 μg/well, final concentration) in pre-blocked microtiter plates overnight at 4° C. The mixtures were then transferred to streptavidin-coated (0.1 μg/well, final concentration) microtiter plates. […] Bound IgG was detected with alkaline phosphatase conjugated to goat anti-mouse IgG.
Four rounds of selection were performed with decreasing concentrations of antigen at each round (i.e., 100 nM, 50 nM, 10 nM, 1 nM). […] Bound sFv was detected with α-9E10 IgG followed by alkaline phosphatase conjugated goat anti-mouse IgG.
To characterize the precise binding properties of the intrabody of the invention, further qualitative and quantitative studies of sFv binding to immobilized antigen were conducted in vitro. […] The kinetics of association and dissociation were determined for the C4 sFv antibody in the BIAcore 2000 (FIG. 11B).
(In general: In an ELISA, binding on a coated surface is turned into a signal by an enzyme label.)

B1: C4 sFv: human single-chain Fv intrabody from phage display, specific for the 17 N-terminal residues of huntingtin; SEQ ID NO: 6 (protein)
scFv: QVQLQESGGGLVQPGGSLRLSCAASGFTFSSYSMSWVRQAPGKGLEWVAVISYDGSNKYYADSVKGRFTISRDNSKNTLYLQMNSLRAEDTAVYYCARDRYFDLWGRGTLVTVSSGGGGSGGGGSGGGGSQSALTQPASVSGSPGQSITISCTGTSSDIGAYNYVSWYQQYPGKAPKLLIYDVSNRPSGISNRFSGSKSGDTASLTISGLQAEDEADYYCSSFANSGPLFGGGTKVTVL
As to B1, the ELISA binding specificity entry is recorded as “binds specifically to the N-terminal HD sequence”. Moreover, the ELISA binding specificity result (listed as cc-Nt-HD-C4 sFv) was “reacted preferentially with antigens containing the Nt-HD flanking peptide sequence”.
